The text below walks through data of article doi:10.1101/2021.05.27.445985.

In this test the target is Cy5-labeled human neutrophil peptide 1 (HNP1) (human). In words: fluorescence polarisation.

With “Recombinant SARS-CoV-2 Spike glycoprotein (from UniProt P0DTC2) (natural protein)”, the dissociation constant (Kd) was 0.146 µM.
